Measured values: patent US6946256

Biological target: T1, TAp63γ (UniProt Q9H3D4)
T1 sequence: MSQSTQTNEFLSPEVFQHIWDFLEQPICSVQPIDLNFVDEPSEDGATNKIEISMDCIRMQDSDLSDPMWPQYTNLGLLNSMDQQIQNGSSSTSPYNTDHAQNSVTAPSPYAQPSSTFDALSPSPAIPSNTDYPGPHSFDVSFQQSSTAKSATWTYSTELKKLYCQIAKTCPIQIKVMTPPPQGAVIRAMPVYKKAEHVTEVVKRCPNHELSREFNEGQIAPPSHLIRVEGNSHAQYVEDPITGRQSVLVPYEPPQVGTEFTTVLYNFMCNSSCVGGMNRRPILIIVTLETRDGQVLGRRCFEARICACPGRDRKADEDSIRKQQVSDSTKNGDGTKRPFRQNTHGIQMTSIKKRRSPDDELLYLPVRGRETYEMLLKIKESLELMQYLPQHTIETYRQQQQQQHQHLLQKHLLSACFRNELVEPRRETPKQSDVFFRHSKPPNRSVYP
Test: cell_activity
Settings: Saos-2 reporter, levels approaching 80% of p53

PG-13 β-galactosidase reporter (multiple copies of minimal p53 binding sequence)
activity: 80 % of p53
